Read-outs that look alike come from different tables or passages of the source.
Legend:
Assay in all cases: SPR
[1] = molecular target: mFcγRII extracellular domain from NOD SCID mice (ly17.1 variant), 6xHis (mouse) (UniProt P08101)
[2] = molecular target: mFcγRII extracellular domain from SCID mice (ly17.2 variant), 6xHis (mouse) (UniProt P08101)
hIgG1 #1 (human) [3] = molecular target: hIgG1 #1 (human)
hIgG1 #2 (human) [4] = molecular target: hIgG1 #2 (human)
hIgG2 #1 (human) [5] = molecular target: hIgG2 #1 (human)
hIgG2 #2 (human) [6] = molecular target: hIgG2 #2 (human)
mIgG1 #1 (mouse) [7] = molecular target: mIgG1 #1 (mouse)
mIgG1 #2 (mouse) [8] = molecular target: mIgG1 #2 (mouse)
mIgG2a #1 (mouse) [9] = molecular target: mIgG2a #1 (mouse)
mIgG2a #2 (mouse) [10] = molecular target: mIgG2a #2 (mouse)
hIgG1 #1 (human) [11] = molecular target: hIgG1 #1 (human); remark: listed apart in the source
hIgG1 #2 (human) [12] = molecular target: hIgG1 #2 (human); remark: listed apart in the source
hIgG2 #1 (human) [13] = molecular target: hIgG2 #1 (human); remark: listed apart in the source
hIgG2 #2 (human) [14] = molecular target: hIgG2 #2 (human); remark: listed apart in the source
mIgG1 #1 (mouse) [15] = molecular target: mIgG1 #1 (mouse); remark: listed apart in the source
mIgG1 #2 (mouse) [16] = molecular target: mIgG1 #2 (mouse); remark: listed apart in the source
mIgG2a #1 (mouse) [17] = molecular target: mIgG2a #1 (mouse); remark: listed apart in the source
mIgG2a #2 (mouse) [18] = molecular target: mIgG2a #2 (mouse); remark: listed apart in the source

Chain of UniProt P08101 (P08101 1-207, change not shown): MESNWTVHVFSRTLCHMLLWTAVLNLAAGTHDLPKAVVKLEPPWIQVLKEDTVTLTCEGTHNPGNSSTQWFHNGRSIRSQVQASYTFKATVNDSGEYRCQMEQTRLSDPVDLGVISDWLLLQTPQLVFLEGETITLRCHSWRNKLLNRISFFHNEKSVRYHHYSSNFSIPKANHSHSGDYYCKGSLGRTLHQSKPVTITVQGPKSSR

Rituximab mIgG2a (antibody)
Kd [1]: 2430 nM | Kd [2]: 2630 nM

Cetuximab (hIgG1) (antibody)
Kd [1]: 4380 nM | Kd [2]: 5420 nM

Rituximab mIgG1 (antibody)
Kd [1]: 2250 nM | Kd [2]: 2020 nM

B1: Recombinant mFcγRII (R&D systems) (receptor)
chain: THDLPKAVVKLEPPWIQVLKEDTVTLTCEGTHNPGNSSTQWFHNGRSIRSQVQASYTFKATVNDSGEYRCQMEQTRLSDPVDLGVISDWLLLQTPQLVFLEGETITLRCHSWRNKLLNRISFFHNEKSVRYHHYSSNFSIPKANHSHSGDYYCKGSLGRTLHQSKPVTITVQGPKSSRSLP
Kd (hIgG1 #1 (human) [3]): 49.2 nM | Kd (hIgG1 #2 (human) [4]): 79 nM | Kd (hIgG2 #1 (human) [5]): 210 nM | Kd (hIgG2 #2 (human) [6]): 218 nM | Kd (mIgG1 #1 (mouse) [7]): 2.77 nM | Kd (mIgG1 #2 (mouse) [8]): 3.62 nM | Kd (mIgG2a #1 (mouse) [9]): 23.6 nM | Kd (mIgG2a #2 (mouse) [10]): 24.1 nM | Kd (hIgG1 #1 (human) [11]): 3020 nM | Kd (hIgG1 #2 (human) [12]): 6610 nM | Kd (hIgG2 #1 (human) [13]): 7650 nM | Kd (hIgG2 #2 (human) [14]): 14500 nM | Kd (mIgG1 #1 (mouse) [15]): 274 nM | Kd (mIgG1 #2 (mouse) [16]): 498 nM | Kd (mIgG2a #1 (mouse) [17]): 1180 nM | Kd (mIgG2a #2 (mouse) [18]): 1100 nM
